# B1: ZNF263 (parent)
# chain: PEASHLRFRRFRFQEAAGPREALS
# Variants of: B1
# Experiment: protein stability index of a GFP-peptide fusion (GPS, HEK-293T) (PSI 1-6); higher = more stable
# Conditions: c terminus: a fixed tail appended
# 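Further: lentivirally expressed fusions sorted by FACS into six bins by GFP to DsRed ratio, PSI derived from sequencing read proportions per bin multiplied by bin number.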
row,Variant,protein stability index
1,PEASHLRFYRFRFQEAAGPREALS,1.96
2,PEASHLRFFRFRFQEAAGPREALS,2.29
3,PEASHLRFHRFRFQEAAGPREALS,1.98
4,PEASHLRFVRFRFQEAAGPREALS,2.21
5,PEASHLRFERFRFQEAAGPREALS,2.21
6,PEASHLRFARFRFQEAAGPREALS,3.18
7,PEASHLRFQRFRFQEAAGPREALS,3.44
8,PEASHLRFMRFRFQEAAGPREALS,2.78
9,PEASHLRFIRFRFQEAAGPREALS,1.69
10,PEASHLRFGRFRFQEAAGPREALS,3.36
11,PEASHLRFCRFRFQEAAGPREALS,2.44
12,PEASHLRFKRFRFQEAAGPREALS,2.82
13,PEASHLRFLRFRFQEAAGPREALS,2.8
14,PEASHLRFDRFRFQEAAGPREALS,2.69
15,PEASHLRFSRFRFQEAAGPREALS,3.8
16,PEASHLRFRRMRFQEAAGPREALS,3.61
17,PEASHLRFRRTRFQEAAGPREALS,4.16
18,PEASHLRFRRWRFQEAAGPREALS,2.67
19,PEASHLRFRRQRFQEAAGPREALS,4.13
20,PEASHLRFRRRRFQEAAGPREALS,4.91
21,PEASHLRFRRIRFQEAAGPREALS,3.1
22,PEASHLRFRRLRFQEAAGPREALS,2.66
23,PEASHLRFRRDRFQEAAGPREALS,3.66
24,PEASHLRFRRNRFQEAAGPREALS,4.33

row,Variant,protein stability index
1,PEASHLRFRRYRFQEAAGPREALS,2.76
2,PEASHLRFRRHRFQEAAGPREALS,4.01
3,PEASHLRFRRPRFQEAAGPREALS,4.66
4,PEASHLRFRRKRFQEAAGPREALS,3.85
5,PEASHLRFRRCRFQEAAGPREALS,2.45
6,PEASHLRFRRSRFQEAAGPREALS,3.53
7,PEASHLRFRRARFQEAAGPREALS,3.25
8,PEASHLRFRRGRFQEAAGPREALS,3.89
9,PEVSHLRFRRFRFQEAAGPREALS,1.73
10,PEYSHLRFRRFRFQEAAGPREALS,2.38
11,PEWSHLRFRRFRFQEAAGPREALS,1.97
12,PESSHLRFRRFRFQEAAGPREALS,2.59
13,PETSHLRFRRFRFQEAAGPREALS,2.52
14,PEAPHLRFRRFRFQEAAGPREALS,3.78
15,PEAGHLRFRRFRFQEAAGPREALS,2.76
16,PEAFHLRFRRFRFQEAAGPREALS,1.87
17,PEAIHLRFRRFRFQEAAGPREALS,1.7
18,PEAAHLRFRRFRFQEAAGPREALS,2.4
19,PEALHLRFRRFRFQEAAGPREALS,1.83
20,PEAYHLRFRRFRFQEAAGPREALS,2.83
21,PEADHLRFRRFRFQEAAGPREALS,2.92
22,PEAMHLRFRRFRFQEAAGPREALS,3.15
23,PEAHHLRFRRFRFQEAAGPREALS,2.04
24,PEAVHLRFRRFRFQEAAGPREALS,1.93

row,Variant,protein stability index
1,PEARHLRFRRFRFQEAAGPREALS,2.19
2,PEAKHLRFRRFRFQEAAGPREALS,2.04
3,PEAEHLRFRRFRFQEAAGPREALS,2.97
4,PEANHLRFRRFRFQEAAGPREALS,2.8
5,PEATHLRFRRFRFQEAAGPREALS,2.76
6,PEAWHLRFRRFRFQEAAGPREALS,3.12
7,PEAQHLRFRRFRFQEAAGPREALS,2.19
8,PEACHLRFRRFRFQEAAGPREALS,2.87
9,PEASHLRFRRFGFQEAAGPREALS,3.28
10,PEASHLRFRRFHFQEAAGPREALS,3.14
11,PEASHLRFRRFAFQEAAGPREALS,3.32
12,PEASHLRFRRFKFQEAAGPREALS,3.64
13,PEASHLRFRRFWFQEAAGPREALS,2.56
14,PEASHLRFRRFSFQEAAGPREALS,4.05
15,PEASHLRFRRFCFQEAAGPREALS,1.81
16,PEASHLRFRRFLFQEAAGPREALS,2.99
17,PEASHLRFRRFIFQEAAGPREALS,2.33
18,PEASHLRFRRFMFQEAAGPREALS,3.46
19,PEASHLRFRRFFFQEAAGPREALS,2.19
20,PEASHLRFRRFPFQEAAGPREALS,3.39
21,PEASHLRFRRFYFQEAAGPREALS,2.4
22,PEASHLRFRRFNFQEAAGPREALS,3.77
23,PEASHLRFRRFTFQEAAGPREALS,3.59
24,PEASHLRFRRFVFQEAAGPREALS,3.61

row,Variant,protein stability index
1,PEASHLRFRRFEFQEAAGPREALS,5.03
2,PEASHLRFRRFQFQEAAGPREALS,4.36
3,PEASHLRFRRFDFQEAAGPREALS,3.93
4,PEASELRFRRFRFQEAAGPREALS,2.47
5,PEASFLRFRRFRFQEAAGPREALS,2.12
6,PEASYLRFRRFRFQEAAGPREALS,1.95
7,PEASWLRFRRFRFQEAAGPREALS,2.44
8,PEASPLRFRRFRFQEAAGPREALS,1.49
9,PEASVLRFRRFRFQEAAGPREALS,2.15
10,PEASLLRFRRFRFQEAAGPREALS,2.74
11,PEASALRFRRFRFQEAAGPREALS,2.61
12,PEASILRFRRFRFQEAAGPREALS,1.91
13,PEASCLRFRRFRFQEAAGPREALS,2.55
14,PEASTLRFRRFRFQEAAGPREALS,2.89
15,PEASMLRFRRFRFQEAAGPREALS,3.39
16,PEASDLRFRRFRFQEAAGPREALS,3.21
17,PEASRLRFRRFRFQEAAGPREALS,2.68
18,PEASNLRFRRFRFQEAAGPREALS,2.31
19,PEASSLRFRRFRFQEAAGPREALS,2.29
20,PEASGLRFRRFRFQEAAGPREALS,2.44
21,PEASKLRFRRFRFQEAAGPREALS,1.77
22,PEASQLRFRRFRFQEAAGPREALS,3.04

# Source: the supplement of paper PMC10567573
